Measurements: patent US20180044415A1 (AbbVie / Abbott, published 2018)

T1: DLL3 extracellular domain (amino acids 27-466) displayed on yeast (human, UniProt Q9NYJ7 27-466)
T1 construct: Yeast surface display construct with HA tag; also called DLL3 ECD; wild type DLL3 ECD
T1 sequence: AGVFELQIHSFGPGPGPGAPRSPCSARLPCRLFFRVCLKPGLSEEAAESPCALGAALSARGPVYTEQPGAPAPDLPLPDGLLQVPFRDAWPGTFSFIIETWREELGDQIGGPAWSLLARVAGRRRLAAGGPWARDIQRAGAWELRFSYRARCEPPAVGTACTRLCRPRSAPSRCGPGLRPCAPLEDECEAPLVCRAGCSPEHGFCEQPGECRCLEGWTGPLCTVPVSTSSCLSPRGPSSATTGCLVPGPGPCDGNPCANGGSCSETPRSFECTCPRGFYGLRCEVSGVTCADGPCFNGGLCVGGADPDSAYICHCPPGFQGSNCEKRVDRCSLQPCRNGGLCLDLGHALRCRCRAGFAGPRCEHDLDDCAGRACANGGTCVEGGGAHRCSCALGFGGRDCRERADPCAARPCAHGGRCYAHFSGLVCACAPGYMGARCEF

T2: human DLL3 (immobilized human DLL3 or h293-hDLL3 cells) (human, UniProt Q9NYJ7 27-492, limits assumed)
T2 construct: the sentence says 'immobilized human DLL3 or h293-hDLL3 cells'
T2 sequence: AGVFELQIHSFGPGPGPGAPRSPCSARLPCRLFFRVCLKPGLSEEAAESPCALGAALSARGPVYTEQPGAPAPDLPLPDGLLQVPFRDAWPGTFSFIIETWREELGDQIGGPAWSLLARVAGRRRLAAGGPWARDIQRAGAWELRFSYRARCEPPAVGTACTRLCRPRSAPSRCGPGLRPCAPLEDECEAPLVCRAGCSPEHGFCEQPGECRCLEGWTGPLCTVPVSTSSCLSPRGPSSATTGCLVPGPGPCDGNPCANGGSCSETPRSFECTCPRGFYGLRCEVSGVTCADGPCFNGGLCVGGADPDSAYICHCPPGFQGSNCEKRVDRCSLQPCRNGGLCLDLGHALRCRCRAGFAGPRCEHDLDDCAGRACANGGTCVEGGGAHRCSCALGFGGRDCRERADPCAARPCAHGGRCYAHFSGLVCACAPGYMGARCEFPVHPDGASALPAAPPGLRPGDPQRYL

B1: SC16.34 (antibody, V domains shown)
VH: QIQLVQSGPELKRPGETVKISCKASGYTFTNYGMNWVKQAPGKGLKWMGWINTYTGDPTYADDFKGRFAFSLETSASTAYLQINNLKNEDTATYFCARIGGNSPSDYWGQGTSLTVSS
VL: SIVMTQTPKFLLVSAGDRVTITCKASQSVSNDVAWYQQKPGQSPKLLIYYASNRYSGVPDRFTGSGYGTDFTFTISTVQAEDLAVYFCQQDYSSPWTFGGGTKLEIK
notes: murine mAb; variable regions only
B2: SC16.56 (antibody, V domains shown)
VH: QIQLVQSGPELKKPGETVKISCKASGYTFTNYGMNWVKQAPGKGLKWMAWINTYTGEPTYADDFKGRFAFSLETSASTASLQIINLKNEDTATYFCARIGDSSPSDYWGQGTTLTVSS
VL: SIVMTQTPKFLLVSAGDRVTITCKASQSVSNDVVWYQQKPGQSPKLLIYYASNRYTGVPDRFAGSGYGTDFSFTISTVQAEDLAVYFCQQDYTSPWTFGGGTKLEIR
notes: as for B1
B3: SC16.23 (antibody, V domains shown)
VH: QVTLKESGPGILQPSQTLSLTCSFSGFSLSTSNTGIGWIRQPSGTGLEWLAHIWWNDDKYYNPSLKSRLTISKETSNNQVFLKITNVDTADTASYFCVQIGRDYSNYAWYFDVWGAGTTVTVSS
VL: QIVLTQSPAIMSASPGEKVTLTCSASSSVSSRYLYWYQQKPGSSPKLWIYSTSNLASGVPARFSGSGSGTSYSLIISSMEAEDAASYFCHQWSNYPLTFGAGTKLELK
notes: as for B1
B4: SC16.136 (antibody, V domains shown)
VH: EVQLQQSGPELVKPGASVKMSCKASGYTFTSYVMHWVKQKPGQGLEWIGYINPYNDGTKYNEKFKGKATLTSDKSSSTAYMELSSLTSEDSAVYYCARDRSGYEDYYGMDYWGQGTSVTVSS
VL: DIQMTQSPASLSASVGETVTITCRASGNIHNYLAWYQQKQGKSPHLLVYNAKTLADGVPSRFSGSGSGTQYSLKINSLQPEDFGSYYCQHFWSTPWTFGGGTKLEIK
notes: as for B1
B5: SC16.137 (antibody, V domains shown)
VH: EVQLVESGGDLVKPGGSLKLSCAASGFTFSSYGMSWVRQTPDKRLEWVATISSGGSYTYYPDSVKGRFTISRDNAKNTLYLQMSSLKSEDTAMYYCARRRADAMDYWGQGTSVTVSS
VL: QIVLTQSPAIMSASLGEEITLTCSASSSVSYMHWYQQKSGTSPKLLIYSTSNLASGVPSRFSGSGSGTFYSLTISSVEAEDAADYYCHQWSSYHTFGGGTKLEIKR
notes: as for B1
B6: SC16.140 (antibody, V domains shown)
VH: QVQLQQSGPELVRPGASVKMSCKASGYTFTSYWMHWVKQRPGQGLEWIGMIDPSNSETRLNQKFKDKATLNVDKSSNTAYMQLSSLTSEDSAVYYCAVMDYYFDYWGQGTTLTVSS
VL: DIVLTQSLASLAVSLGQRATISCRASKSVSTSGYSYMHWYQQKPGQPPKLLIYLASNLESGVPARFSGSGSGTDFTLNIHPVEDEDAATYYCQHSRELPFTFGGGTKLEIK
notes: as for B1
B7: SC16.141 (antibody, V domains shown)
VH: QVQLKQSGPGLVAPSQSLFITCTVSGFSLTSYEINWVRQPPGKGLEWLGVIWTGGSTNYNSALISRLSISKDNSKSLVFLKMNSLQTDDTAIYYCVRGVYAMDYWGQGTSVTVSS
VL: DIKMTQSPSSMYASLGERVTITCKASQDINSYLSWFQQKPGKSPKTLIYRANRLVDGVPSRFSGSGSGQDYSLTISSLEYEDMGIYYCLQYDEFPFTFGSGTKLEIK
notes: as for B1

How the values were obtained:
[1] = target: T1, DLL3 extracellular domain (amino acids …); assay: fine epitope mapping
Protocol: To test for binding to a particular construct, 200,000 induced yeast cells expressing the desired construct were washed twice in PBS+1 mg/mL BSA (PBSA), and incubated in 50 μL of PBSA with biotinylated anti-HA clone 3F10 (Roche Diagnostics) at 0.1 μg/mL and either 50 nM purified antibody or 1:2 dilution of unpurified supernatant from hybridomas cultured for 7 days. Cells were incubated for 90 minutes on ice, followed by two washes in PBSA. Cells were then incubated in 50 μL PBSA with the appropriate secondary antibodies: for murine antibodies, Alexa 488 conjugated streptavidin, and Alexa 647 conjugated goat anti mouse (Life Technologies) were added at 1 μg/mL each; and for humanized or chimeric antibodies, Alexa 647 conjugated streptavidin (Life Technologies) and R-phycoerythrin conjugated goat anti human (Jackson Immunoresearch) were added at 1 μg/mL each. After a twenty minute incubation on ice, cells were washed twice with PBSA and analyzed on a FACS Canto II. Antibodies that bound to DLL3-DLL1 chimera were designated as binding to the N-terminal region+DSL. Antibodies that bound specifically to an epitope present on a particular EGF-like domain were designated as binding to its respective domain (FIG. 2.)
Alternatively, a yeast display method (Chao et al., 2007, PMID: 17406305) was used to map the epitopes of selected antibodies. Libraries of DLL3 ECD mutants were generated with error prone PCR using nucleotide analogues 8-oxo-2′deoxyguanosine-5′-triphosphate and 2′-deoxy-p-nucleoside-5′triphosphate (TriLink Bio) for a target mutagenesis rate of one amino acid mutation per clone. These were transformed into a yeast display format. Using the technique described above for domain-level mapping, the library was stained for HA and antibody binding at 50 nM. […] These clones were re-grown, and subjected to another round of FACS sorting for loss of binding to the target antibody. Using the Zymoprep Yeast Plasmid Miniprep kit (Zymo Research), individual ECD clones were isolated and sequenced. […]

[2] = target: T2, human DLL3 (immobilized human DLL3 or …); assay: hybridoma screening on immobilized human DLL3 or on h293-hDLL3 cells

| Binder | binding result [1] | binding result [2] |
| --- | --- | --- |
| B1 | binds | binds |
| B2 | binds | binds |
| B3 | binds | binds |
| B4 |  | binds |
| B5 |  | binds |
| B6 |  | binds |
| B7 |  | binds |
